Experimental data reported in US20160115212A1.

Target: HLA class II molecules of healthy donors carrying different HLA DR alleles
Experiment: cell-based or functional assay

IFNγ producing CD4-positive T-cells, donor 1, after an additional round of stimulation: 0.09 to 0.13%
IFNγ producing CD4-positive T-cells, donor 1, after the third stimulation: 0.05 to 0.1%
maximal frequency of IFNγ producing CD4^+T-cells, donor 2: 0.05%
maximal frequency of IFNγ producing CD4^+T-cells, donor 3: 0.07%
Binder: HSKIIIIKKGHAK [IGFBP3 169-181]
